Patent publication US7838249 (BOARD OF REGENTS OF THE UNIVERSITY OF OKLAHOMA, dated 2010)
Each block holds one molecule with its values, some of them ahead of it.

What was measured:
[1] = target: TrkA (high-affinity NGF receptor), expressed in PC12 cells from pBI/TrkA; test: cell-based or functional assay
GST-Rabex-5(135-399) = target: T1, GST-Rabex-5(135-399) (Bos taurus, UniProt O18973 135-399); test: GST pull-down, SDS-PAGE, Coomassie staining
T1 construct: Immobilized on glutathione Sepharose-4B; also called the GEF domain itself
T1 sequence (O18973 other isoform, or with tags, fused parts or gaps limits assumed): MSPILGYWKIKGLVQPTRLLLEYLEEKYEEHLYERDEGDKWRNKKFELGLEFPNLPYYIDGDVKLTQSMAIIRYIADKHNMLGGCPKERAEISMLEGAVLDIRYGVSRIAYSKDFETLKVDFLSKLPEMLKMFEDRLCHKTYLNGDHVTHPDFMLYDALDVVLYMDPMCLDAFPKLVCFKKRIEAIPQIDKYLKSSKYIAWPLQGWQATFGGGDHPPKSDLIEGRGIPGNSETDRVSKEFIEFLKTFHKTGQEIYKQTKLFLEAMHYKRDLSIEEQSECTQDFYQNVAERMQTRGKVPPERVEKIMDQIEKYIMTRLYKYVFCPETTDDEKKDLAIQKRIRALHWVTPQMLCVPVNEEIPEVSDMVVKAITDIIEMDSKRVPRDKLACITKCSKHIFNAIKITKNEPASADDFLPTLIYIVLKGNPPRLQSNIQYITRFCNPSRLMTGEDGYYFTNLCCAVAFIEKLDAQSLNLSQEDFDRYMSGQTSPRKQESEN
Method: The final concentration of each protein was <2 μM for detection of specific binding. The resins were subsequently washed three times with phosphate-buffered saline (PBS) and resuspended in 20 μl of SDS sample buffer. The samples were subjected to 20% SDS-PAGE analysis, and the proteins were visualized by Coomassie brilliant blue staining.
The bound proteins were analyzed by SDS-PAGE and visualized by Coomassie blue staining. […] Molecular mass standards (in kilodaltons) are indicated on the left of the panel.

Sequence of TrkA (high-affinity NGF receptor), expressed in PC12 cells from pBI/TrkA (P35739 33-799): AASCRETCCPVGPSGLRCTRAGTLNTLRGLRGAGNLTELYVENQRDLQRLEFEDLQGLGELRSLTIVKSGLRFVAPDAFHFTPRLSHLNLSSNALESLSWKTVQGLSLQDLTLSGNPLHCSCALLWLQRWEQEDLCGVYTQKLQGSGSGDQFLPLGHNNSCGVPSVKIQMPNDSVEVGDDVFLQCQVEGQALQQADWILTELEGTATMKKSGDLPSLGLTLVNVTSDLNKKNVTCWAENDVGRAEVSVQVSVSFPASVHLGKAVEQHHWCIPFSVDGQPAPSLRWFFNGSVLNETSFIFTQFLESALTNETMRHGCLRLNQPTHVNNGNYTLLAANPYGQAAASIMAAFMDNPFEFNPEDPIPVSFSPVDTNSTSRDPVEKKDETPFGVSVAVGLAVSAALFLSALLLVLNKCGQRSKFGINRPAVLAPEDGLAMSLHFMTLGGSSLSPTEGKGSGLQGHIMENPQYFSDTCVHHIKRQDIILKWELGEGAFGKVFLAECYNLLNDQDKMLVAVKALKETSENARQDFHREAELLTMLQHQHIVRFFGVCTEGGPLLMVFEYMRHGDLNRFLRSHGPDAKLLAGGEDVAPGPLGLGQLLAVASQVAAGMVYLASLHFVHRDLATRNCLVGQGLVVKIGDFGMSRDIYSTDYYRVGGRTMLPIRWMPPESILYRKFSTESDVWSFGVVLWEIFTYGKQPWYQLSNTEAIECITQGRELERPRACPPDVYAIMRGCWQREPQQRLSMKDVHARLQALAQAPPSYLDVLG

NGF-mediated neurite outgrowth (percentage of differentiated PC12 cells) [1]: 20%
Molecule: Myc-tagged RabGAP5-C (residues 441-749) (from UniProt F1LQU9 454-763)

binding result (GST-Rabex-5(135-399)): no binding
B1: 6-His-Rabaptin-5(551-661) (other)
chain: HHHHHHAETRDQVKKLQLMLRQANDQLEKTMKDKQELEDFIKQSSEDSSHQISALVLRAQASEILLEELQQGLSQAKRDVQEQMAVLMQSREQVSEELVRLQKDNDSLQGKHSLHVS
notes: Purified from E. coli BL21(DE3)

binding result (GST-Rabex-5(135-399)): no binding
B2: 6-His-Rabaptin-5(551-862) (other)
chain: HHHHHHAETRDQVKKLQLMLRQANDQLEKTMKDKQELEDFIKQSSEDSSHQISALVLRAQASEILLEELQQGLSQAKRDVQEQMAVLMQSREQVSEELVRLQKDNDSLQGKHSLHVSLQQAEDFILPDTTEALRELVLKYREDIINVRTAADHVEEKLKAEILFLKEQIQAEQCLKENLEETLQLEIENCKEEIASISSLKAELERIKVEKGQLESTLREKSQQLESLQEIKISLEEQLKKETAAKATVEQLMFEEKNKAQRLQTELDVSEQVQRDFVKLSQTLQVQLERIRQADSLERIRAILNDTKLTDINQLPET
